The series concerns the molecule itself. In words: cryo-EM structure; purified PC2 185-723 in UDM detergent, incubated overnight at 4°C with 18:0-20:4 PI(4,5)P2 (1:20, tetramer:lipid) or 18:1 PI(3,5)P2 (1:40); C4 symmetry imposed in the reconstruction.

B1: Polycystin-2, truncated construct hPC2: Pro185 - Asp723 (domain or fragment, human, UniProt Q13563 185-723, looked up)
chain: PRVAWAERLVRGLRGLWGTRLMEESSTNREKYLKSVLRELVTYLLFLIVLCILTYGMMSSNVYYYTRMMSQLFLDTPVSKTEKTNFKTLSSMEDFWKFTEGSLLDGLYWKMQPSNQTEADNRSFIFYENLLLGVPRIRQLRVRNGSCSIPQDLRDEIKECYDVYSVSSEDRAPFGPRNGTAWIYTSEKDLNGSSHWGIIATYSGAGYYLDLSRTREETAAQVASLKKNVWLDRGTRATFIDFSVYNANINLFCVVRLLVEFPATGGVIPSWQFQPLKLIRYVTTFDFFLAACEIIFCFFIFYYVVEEILEIRIHKLHYFRSFWNCLDVVIVVLSVVAIGINIYRTSNVEVLLQFLEDQNTFPNFEHLAYWQIQFNNIAAVTVFFVWIKLFKFINFNRTMSQLSTTMSRCAKDLFGFAIMFFIIFLAYAQLAYLVFGTQVDDFSTFQECIFTQFRIILGDINFAEIEEANRVLGPIYFTTFVFFMFFILLNMFLAIINDTYSEVKSDLAQQKAEMELSDLIRKGYHKALVKLKLKKNTVD
notes: Polycystin-2 (PC2, PKD2, TRPP1), human, residues Pro185 to Asp723; For cryo-EM the protein was treated with alpha-L-fucosidase, PNGase F and TEV protease (the tag stands after a TEV site); The forward primer carries an ATG before the Pro185 codon; Homo-tetramer; also called PKD2; TRPP1; not shown: His10, C-terminal, cleaved; FLAG, C-terminal, cleaved
Usually stoichiometry N stands for the number of molecules, sites or subunits per partner or assembly. As for B1, the “stoichiometry N” value stood at 4.

Source of the values: paper PMC7001106, “Lipid Interactions of a Ciliary Membrane TRP Channel: Simulation and Structural Studies of Polycystin-2” (Structure(London, England:1993), 2020).
